Publication PMC3738494, “A Systematic Analysis of Host Factors Reveals a Med23-Interferon-λ Regulatory Axis against Herpes Simplex Virus Type 1 Replication” (PLoS Pathogens, 2013)

Molecular target: T1, Med23, myc-tagged fusion protein expressed in HEK cells (human, UniProt Q9ULK4 1-1368)
T1 sequence (looked up): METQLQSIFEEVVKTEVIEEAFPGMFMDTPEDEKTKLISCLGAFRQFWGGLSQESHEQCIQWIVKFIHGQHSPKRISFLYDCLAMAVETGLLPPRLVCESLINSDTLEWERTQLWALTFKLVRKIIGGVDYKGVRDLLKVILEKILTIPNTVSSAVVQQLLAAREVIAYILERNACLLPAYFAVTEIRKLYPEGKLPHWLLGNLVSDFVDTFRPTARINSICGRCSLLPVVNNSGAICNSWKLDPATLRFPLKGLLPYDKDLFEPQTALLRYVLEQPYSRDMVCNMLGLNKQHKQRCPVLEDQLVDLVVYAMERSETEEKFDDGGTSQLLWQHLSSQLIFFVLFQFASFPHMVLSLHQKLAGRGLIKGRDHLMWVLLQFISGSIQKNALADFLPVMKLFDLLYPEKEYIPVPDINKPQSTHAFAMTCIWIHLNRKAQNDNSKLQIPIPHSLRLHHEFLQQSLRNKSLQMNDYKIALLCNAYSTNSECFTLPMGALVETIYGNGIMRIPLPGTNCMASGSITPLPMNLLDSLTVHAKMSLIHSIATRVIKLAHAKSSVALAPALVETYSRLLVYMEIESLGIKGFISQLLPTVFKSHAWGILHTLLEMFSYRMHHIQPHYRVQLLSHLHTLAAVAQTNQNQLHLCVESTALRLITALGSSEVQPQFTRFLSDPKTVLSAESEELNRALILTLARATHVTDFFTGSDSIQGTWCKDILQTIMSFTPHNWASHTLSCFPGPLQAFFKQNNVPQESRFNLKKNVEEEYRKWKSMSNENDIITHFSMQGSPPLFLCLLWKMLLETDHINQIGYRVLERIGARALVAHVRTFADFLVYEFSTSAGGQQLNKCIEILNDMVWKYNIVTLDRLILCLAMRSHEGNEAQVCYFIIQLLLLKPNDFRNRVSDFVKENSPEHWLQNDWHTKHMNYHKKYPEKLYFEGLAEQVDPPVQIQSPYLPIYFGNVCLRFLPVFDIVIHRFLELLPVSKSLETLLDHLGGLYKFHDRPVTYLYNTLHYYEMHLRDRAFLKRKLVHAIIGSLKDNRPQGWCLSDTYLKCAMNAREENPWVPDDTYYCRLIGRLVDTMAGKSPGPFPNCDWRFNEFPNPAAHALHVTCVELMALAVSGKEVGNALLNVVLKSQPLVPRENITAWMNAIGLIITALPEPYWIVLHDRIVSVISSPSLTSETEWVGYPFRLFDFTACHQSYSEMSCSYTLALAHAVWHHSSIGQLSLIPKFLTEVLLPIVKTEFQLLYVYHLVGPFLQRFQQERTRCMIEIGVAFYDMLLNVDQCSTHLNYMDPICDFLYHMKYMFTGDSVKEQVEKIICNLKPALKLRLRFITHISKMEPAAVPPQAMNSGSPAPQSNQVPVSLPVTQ
Experiment: cell-based or functional assay

IFN-λ1 promoter luciferase reporter in A549 cells, IRF7 co-expressed with Med23 (IRF7 alone ~9-fold over background): ~18 fold
IFN-λ3 in the supernatant of A549 cells by ELISA, Med23 co-expressed with IRF7 against either alone: > 2 fold
B1: IRF7, HA-tagged, expressed in HEK cells (natural protein, human, UniProt Q92985 1-503, looked up)
chain: MALAPERAAPRVLFGEWLLGEISSGCYEGLQWLDEARTCFRVPWKHFARKDLSEADARIFKAWAVARGRWPPSSRGGGPPPEAETAERAGWKTNFRCALRSTRRFVMLRDNSGDPADPHKVYALSRELCWREGPGTDQTEAEAPAAVPPPQGGPPGPFLAHTHAGLQAPGPLPAPAGDKGDLLLQAVQQSCLADHLLTASWGADPVPTKAPGEGQEGLPLTGACAGGPGLPAGELYGWAVETTPSPGPQPAALTTGEAAAPESPHQAEPYLSPSPSACTAVQEPSPGALDVTIMYKGRTVLQKVVGHPSCTFLYGPPDPAVRATDPQQVAFPSPAELPDQKQLRYTEELLRHVAPGLHLELRGPQLWARRMGKCKVYWEVGGPPGSASPSTPACLLPRNCDTPIFDFRVFFQELVEFRARQRRGSPRYTIYLGFGQDLSAGRPKEKSLVLVKLEPWLCRVHLEGTQREGVSSLDSSSLSLCLSSANSLYDDIECFLMELEQPA
